Values belong to the substance of their own block, whether it stands above or below them.
Legend:
[1] = target: dynamin I (native, from rat brain synaptosomes; total pool) (rat) (UniProt P21575); experiment: sequential GST pull-downs from synaptosome lysate; molar ratio GST-AmphI-SH3:dynamin above 2:1
[2] = target: phospho-dynamin I (native, phosphorylated in vivo, from rat brain synaptosomes) (rat) (UniProt P21575); experiment: GST pull-down from 32Pi-labelled synaptosome lysate, 150 mM NaCl, quantitative analysis of autoradiograph against protein
[3] = target: amphiphysin I (native, from rat brain lysate) (rat) (UniProt O08838); experiment: peptide competition in GST-DynI-PRD pull-down from rat brain lysate; the filing later calls this an experimental artefact
[4] = target: dynamin I (native, from rat brain synaptosomes; total pool) (rat) (UniProt P21575); experiment: GST pull-down from synaptosome lysate without salt

phospho-dynamin I (native, phosphorylated in vivo, from rat brain synaptosomes) (rat), sequence (P21575 whole entry): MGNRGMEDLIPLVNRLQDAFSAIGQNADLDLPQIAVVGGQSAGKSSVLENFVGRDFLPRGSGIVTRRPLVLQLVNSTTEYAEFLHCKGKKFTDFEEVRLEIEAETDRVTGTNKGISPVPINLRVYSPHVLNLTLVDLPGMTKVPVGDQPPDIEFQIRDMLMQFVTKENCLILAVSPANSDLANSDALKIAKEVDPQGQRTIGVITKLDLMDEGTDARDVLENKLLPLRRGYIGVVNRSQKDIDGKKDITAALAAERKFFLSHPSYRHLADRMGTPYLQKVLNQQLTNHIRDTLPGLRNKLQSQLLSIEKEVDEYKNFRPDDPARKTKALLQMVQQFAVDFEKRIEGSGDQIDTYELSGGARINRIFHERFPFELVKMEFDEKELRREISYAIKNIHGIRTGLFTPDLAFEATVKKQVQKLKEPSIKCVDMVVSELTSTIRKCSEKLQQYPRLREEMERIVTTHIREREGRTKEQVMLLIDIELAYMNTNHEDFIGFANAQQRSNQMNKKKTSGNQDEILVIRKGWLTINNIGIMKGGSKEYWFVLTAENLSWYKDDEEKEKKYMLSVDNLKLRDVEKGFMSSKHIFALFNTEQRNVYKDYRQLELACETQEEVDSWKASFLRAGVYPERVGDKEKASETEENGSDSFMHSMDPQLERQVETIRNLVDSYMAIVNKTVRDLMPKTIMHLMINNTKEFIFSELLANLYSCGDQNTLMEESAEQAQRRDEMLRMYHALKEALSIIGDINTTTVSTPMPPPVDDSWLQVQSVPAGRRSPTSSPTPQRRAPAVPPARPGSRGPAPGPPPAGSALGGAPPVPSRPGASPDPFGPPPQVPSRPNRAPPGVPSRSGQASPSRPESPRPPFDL
dynamin I (native, from rat brain synaptosomes; total pool) (rat), sequence (P21575 whole entry): as above
amphiphysin I (native, from rat brain lysate) (rat), sequence (O08838 whole entry): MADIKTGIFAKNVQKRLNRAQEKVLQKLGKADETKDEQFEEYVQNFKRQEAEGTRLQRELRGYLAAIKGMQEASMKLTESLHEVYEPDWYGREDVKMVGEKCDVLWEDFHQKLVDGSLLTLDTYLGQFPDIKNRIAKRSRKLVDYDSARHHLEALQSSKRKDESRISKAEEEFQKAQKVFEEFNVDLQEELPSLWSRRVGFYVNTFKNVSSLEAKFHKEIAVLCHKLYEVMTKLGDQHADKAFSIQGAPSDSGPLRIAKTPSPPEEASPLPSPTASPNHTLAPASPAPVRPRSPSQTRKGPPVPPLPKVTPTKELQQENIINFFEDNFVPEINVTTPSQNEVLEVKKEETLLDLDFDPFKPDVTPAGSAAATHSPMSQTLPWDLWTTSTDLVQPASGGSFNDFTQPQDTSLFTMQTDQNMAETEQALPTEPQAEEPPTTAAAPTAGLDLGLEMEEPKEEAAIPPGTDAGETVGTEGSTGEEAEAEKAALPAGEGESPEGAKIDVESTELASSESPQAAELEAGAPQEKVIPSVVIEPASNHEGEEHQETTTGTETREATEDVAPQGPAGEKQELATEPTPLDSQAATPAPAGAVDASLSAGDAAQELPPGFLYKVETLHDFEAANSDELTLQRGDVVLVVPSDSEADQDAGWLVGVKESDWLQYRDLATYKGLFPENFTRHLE
GST-EndoI-SH3, sequence (O35179 290-349): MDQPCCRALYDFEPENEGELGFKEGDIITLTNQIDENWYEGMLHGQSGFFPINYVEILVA

- residual dynamin recovered in a second sequential pull-down [1]: < 1%
Substance: GST-AmphI-SH3

- binding to phospho-dynamin I relative to the total dynamin I bound to the beads (% of AmphI-SH3 control) [2]: 56
Substance: full-length GST-fusion protein of syndapin I (SdpnI-FL)

- fold higher peptide concentration needed for inhibition [3]: 10 fold
Substance: DynI783-796 peptide

- binding to phospho-dynamin I relative to the total dynamin I bound to the beads (% of AmphI-SH3 control) [2]: 91
Substance: full-length GST-fusion protein of endophilin I (EndoI-FL)

- percent of synaptosomal dynamin I extracted [4]: > 95%
Substance: GST-EndoI-SH3
